Experiment [1] deals with T1, ERBIN PDZ domain (Homo sapiens, UniProt Q96RT1). Nature of the experiment: GST-PDZ co-precipitation of proteins from transfected HEK 293 cell extracts. In kind it is binding. On the set-up: made in house; host or cells: E. coli. To be noted: extracts from transfected HEK 293 cells; FIG. 6. Here is the method:
(§1) HEK 293 (293) cells grown in high glucose Dulbeco's Modified Eagle Medium (DMEM), 10% fetal calf serum, 1× non-essential amino acid supplement, 1×L-glutamine supplement, 10 mM HEPES (pH 7.4) and penicillin/streptomycin (all from Life Technologies) to ˜80% confluence were transfected with 2 μg DNA/35 mm diameter well (for example, DNAs encoding the sequences described in EXAMPLE 5.0) using Fugene reagent (Roche Biochemical). 24 hours post-transfection, cells were washed once with PBS and then scraped into 1 ml/well of 20 mM Tris (pH 7.5), 1% Triton X-100, 200 mM NaCl, 1 mM dithiothreitol, and protease inhibitor cocktail with EDTA (Roche Biochemical, catalog #1836145) and homogenized gently with three to five strokes in a dounce (Wheaton) using a loose glass pestle. Extracts were centrifuged at 12,000 rpm in a tabletop centrifuge at 4° C. for 10 minutes; the supernatant was combined with an equal volume of homogenization buffer without NaCl to achieve a final salt concentration of 100 mM and frozen at −70° C. until use. […] Binding of 293 cell-expressed proteins was detected by immunoblot analysis using antibodies against GFP (Clontech) and Her 2 (Santa Cruz Biotechnology).
(§2) Amino acids 1217-1371 of ERBIN and 584-707 corresponding to PDZ 2 of MAGI-3 (Sidhu et al., 2000); were expressed in E. coli as GST fusions. […] Equal volumes of extract and depleted extract (sup.) were analyzed.
Target sequence in this assay (Q96RT1 1258-1412): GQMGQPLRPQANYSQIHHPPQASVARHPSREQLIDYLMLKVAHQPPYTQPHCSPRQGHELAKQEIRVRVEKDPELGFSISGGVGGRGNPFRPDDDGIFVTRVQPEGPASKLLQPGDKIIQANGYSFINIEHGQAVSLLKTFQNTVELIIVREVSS

The target of experiment [2] is T1, ERBIN PDZ domain. Description: Co-localization of ERBIN PDZ and δ-catenin in transfected HEK 293 cells. The settings on record: co-transfected HEK 293 cells; FIG. 7. It is filed as cell-based. On the set-up: expressed in transfected cells; host or cells: HEK 293. As to the method:
HEK 293 cells were grown to 70% confluence on collagen IV coated coverslips and then transfected with 1.4 μg of GST-ERBIN PDZ in pcDNA 3.1/V5/His and 1.1 μg of the indicated EGFP construct. 24 to 48 hours post-transfection, the cells were washed in PBS, fixed for 30 minutes in 2.5% formaldehyde, permeabilized with 0.25% Triton X-100 in PBS, and blocked with 5% donkey serum in PBS. The ERBIN PDZ domain was visualized by staining with monoclonal anti-V5 antibody (Invitrogen) and Cy3-conjugated secondary antibodies (Jackson Immunolabs) whereas GFP fusions were visualized directly. Images were taken on a standard fluorescence microscope using a 40× objective and digital CCD camera and SPOT imaging software (Diagnostic Instruments, Inc.; Sterling Heights, Mich.).
The ERBIN PDZ domain was co-transfected into HEK 293 E cells with EGFP, human δ-catenin or human δ-catenin missing the six C-terminal amino acids (FIG. 7).
Target sequence in this assay (Q96RT1 1314-1412): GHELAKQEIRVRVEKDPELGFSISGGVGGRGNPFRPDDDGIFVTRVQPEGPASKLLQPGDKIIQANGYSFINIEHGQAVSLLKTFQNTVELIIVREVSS

Experiment [3] addresses T2, PDZ 2 of MAGI-3 (Homo sapiens, UniProt Q5TCQ9).
T2 construct: made in house; host or cells: E. coli
T2 sequence (Q5TCQ9 584-707 isoform Q5TCQ9-2): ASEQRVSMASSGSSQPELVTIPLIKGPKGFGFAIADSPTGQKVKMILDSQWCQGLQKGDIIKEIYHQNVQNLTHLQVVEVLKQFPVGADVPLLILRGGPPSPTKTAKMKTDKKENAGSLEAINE
Description: GST-PDZ co-precipitation of proteins from transfected HEK 293 cell extracts. The settings on record: extracts from transfected HEK 293 cells; FIG. 6. It is filed as binding. As to the method:
as §1, §2

These results are taken from US20030148264A1, “Phage displayed PDZ domain ligands” (GENENTECH, INC., priority 2001, published 2003).

B1: δ-catenin: member of the Armadillo family, expressed as EGFP fusion in HEK 293 cells; candidate ERBIN PDZ ligand (protein)
chain: MFARKPPGAAPLGAMPVPDQPSSASEKTSSLSPGLNTSNGDGSETETTSAILASVKEQELQFERLTRELEAERQIVASQLERCKLGSETGSMSSMSSAEEQFQWQSQDGQKDIEDELTTGLELVDSCIRSLQESGILDPQDYSTGERPSLLSQSALQLNSKPEGSFQYPASYHSNQTLALGETTPSQLPARGTQARATGQSFSQGTTSRAGHLAGPEPAPPPPPPPREPFAPSLGSAFHLPDAPPAAAAAALYYSSSTLPAPPRGGSPLAAPQGGSPTKLQRGGSAPEGATYAAPRGSSPKQSPSRLAKSYSTSSPINIVVSSAGLSPIRVTSPPTVQSTISSSPIHQLSSTIGTYATLSPTKRLVHASEQYSKHSQELYATATLQRPGSLAAGSRASYSSQHGHLGPELRALQSPEHHIDPIYEDRVYQKPPMRSLSQSQGDPLPPAHTGTYRTSTAPSSPGVDSVPLQRTGSQHGPQNAAAATFQRASYAAGPASNYADPYRQLQYCPSVESPYSKSGPALPPEGTLARSPSIDSIQKDPREFGWRDPELPEVIQMLQHQFPSVQSNAAAYLQHLCFGDNKIKAEIRRQGGIQLLVDLLDHRMTEVHRSACGALRNLVYGKANDDNKIALKNCGGIPALVRLLRKTTDLEIRELVTGVLWNLSSCDALKMPIIQDALAVLTNAVIIPHSGWENSPLQDDRKIQLHSSQVLRNATGCLRNVSSAGEEARRRMRECDGLTDALLYVIQSALGSSEIDSKTVENCVCILRNLSYRLAAETSQGQHMGTDELDGLLCGEANGKDAESSGCWGKKKKKKKSQDQWDGVGPLPDCAEPPKGIQMLWHPSIVKPYLTLLSECSNPDTLEGAAGALQNLAAGSWKWSVYIRAAVRKEKGLPILVELLRIDNDRVVCAVATALRNMALDVRNKELIGKYAMRDLVHRLPGGNNSNNTASKAMSDDTVTAVCCTLHEVITKNMENAKALRDAGGIEKLVGISKSKGDKHSPKVVKAASQVLNSMWQYRDLRSLYKKDGWSQYHFVASSSTIERDRQRPYSSSRTPSISPVRVSPNNRSASAPASPREMISLKERKTDYECTGSNATYHGAKGEHTSRKDAMTAQNTGISTLYRNSYGAPAEDIKHNQVSAQPVPQEPSRKDYETYQPFQNSTRNYDESFFEDQVHHRPPASEYTMHLGLKSTGNYVDFYSAARPYSELNYETSHYPASPDSWV
modifications: left off: large carriers
notes: member of the Armadillo family, expressed as EGFP fusion in HEK 293 cells; candidate ERBIN PDZ ligand
For B1, in experiment [1], the “binding to / precipitation by GST-ERBIN PDZ” value was “binds strongly”. For the same molecule, the “co-localization with / recruitment of ERBIN PDZ domain” value in experiment [2] is “complete recruitment of ERBIN PDZ to the cell junction”. Also, the “binding to / precipitation by GST-MAGI-3 PDZ 2” value in experiment [3] is reported as “not to PDZ 2 of MAGI-3”.
